The assay deals with Full-length human Nf1-23a (neurofibromin isoform 2) (human) (UniProt P21359). Briefly: cryo-EM structure; single-particle cryo-EM of purified Nf1-23a at ~0.5 mg/ml in 20 mM Tris pH 8.0, 300 mM NaCl, 2 mM DTT, grids frozen at 4 °C; native sample and sample incubated 90 min with 50 µM ZnCl2; homodimer, no symmetry imposed (C1). Conditions: remark: other sources report otherwise.

In general, stoichiometry N refers to the number of molecules, sites or subunits per partner or assembly.

Substance “Full-length human Nf1-23a (neurofibromin isoform 2), P21359 1-2839” returned a stoichiometry N of 2.

These data come from PMC8580823.
